These results are taken from patent publication US20170152313A1 (Novartis, published 2017).

Test [1] addresses T1, Human LOX-1 full-length protein (human, UniProt P78380 1-273). Kind of test: cell-based or functional assay.
Test [2] concerns the target T1, Human LOX-1 full-length protein. Kind of test: flow cytometry, inhibition of dil-OxLDL binding to huLOX-1/HEK293 cells. As for the experimental part:
The huLOX-1/HEK293 cells were resuspended at 1×10⁶ cells/mL and seeded 50 μL per well into a 96-well V-bottom plate (5×10⁴ cells per well). LOX-1 or irrelevant control antibodies in assay medium (DMEM+10% FBS) were then added to the cells. Typical final antibody concentrations ranged from 0.006 μg/mL to 20 μg/mL. The cells were incubated at 37° C. for 1 hour, then washed twice with warm HBSS. Dil-oxLDL (human dil-labeled “High Oxidized” LDL, Kalen Biomedical, catalog number 770262-9; Dil is 1,1′-dioctadecyl-3,3,3′,3′-tetramethylindocarbocyanine perchlorate) in 50 ul assay medium was then added to a final concentration 30 to 100 μg/mL. The cells were then incubated at 37° C. for 2 hours, and then washed twice with FACS buffer (2% FBS in PBS). Cells were then analyzed for intensity of Di-I fluorescence by flow cytometry, as depicted in FIG. 2 and Table 3.
(A flow cytometer gives signals particle by particle.)

Test [3] shares this target. In words: flow cytometry, biotinylated antibody on primary human neutrophils, PE-streptavidin. As for the experimental part: The resulting cell suspension was carefully transferred to a 50 mL conical tube containing 10 mL Ficoll-Paque, layering the cell suspension on top of the Ficoll-Paque, and the tube was then centrifuged at 1400 rpm (400×g) for 30 minutes at room temperature. The top layer was the discarded. To the resulting cell pellet, 10 mL 0.2% ice-cold sodium chloride was added, and the mixture was incubated for exactly 30 seconds to lyse red blood cells; 10 mL of ice-cold 1.6% sodium chloride was added to restore isotonicity. The cell suspension was then centrifuged at 1200 rpm ([…]) for 5 minutes. The supernantant was then discarded, and the red blood cell lysis procedure repeated once more. The resulting cell pellet was resuspended in FACS buffer (2 mM EDTA, 1% BSA, and 0.2% sodium azide in PBS) at a cell density of 2×10⁶ cells/mL.
The cell suspension containing freshly isolated human neutrophils was transferred (50 ul/well) to wells of a 96-well V-bottom plate (1×10⁵ cells/well) (Costar, catalog number 3894). Blocking buffer (4% normal rabbit serum diluted in FACS buffer (2 mM EDTA, 1% BSA, and 0.2% sodium azide in PBS) (50 ul/well) was added and the plate was incubated on ice for 30 minutes. Biotinylated LOX-1 antibody (10 μl) in FACS buffer was then added to the wells at final concentrations ranging from 1 ng/ml to 5 ug/mL, and the plate was incubated on ice for 30 minutes. The plate was then centrifuged at 1200 rpm (250-300×g) for 3 minutes and supernatant was discarded. The cells were then washed twice with 0.2 mL FACS buffer, and then 0.1 mL of PE-streptavidin (BD Pharmingen catalog number 554061) diluted at 1:250 in FACS buffer was added, and the plate incubated on ice for 30 minutes. The plate was then centrifuged again, supernatant discarded, and the cells washed twice with 0.2 mL FACS buffer. Cells were then resuspended in 0.1 mL of fixing buffer (FACS buffer with 2% paraformaldehyde) and analyzed using a FACS instrument. To determine an EC50 value for neutrophil binding by LOX-1 antibodies, the LOX-1 staining intensity determined by FACS was plotted vs. the concentration of the antibody as shown in FIG. 5 and Table 3.

For test [4], the target named is T2, APP-Avi-soluble cynomolgus monkey LOX-1 (61-273) (cynomolgus monkey, biotinylated at the Avi tag when immobilised in the SET assay).
T2 construct: Expressed and purified in the same way as the human protein; also called cynomolgus monkey soluble LOX-1; Cynomolgus Monkey Soluble APP-Avi-LOX-1
T2 sequence (chain, as listed by the source): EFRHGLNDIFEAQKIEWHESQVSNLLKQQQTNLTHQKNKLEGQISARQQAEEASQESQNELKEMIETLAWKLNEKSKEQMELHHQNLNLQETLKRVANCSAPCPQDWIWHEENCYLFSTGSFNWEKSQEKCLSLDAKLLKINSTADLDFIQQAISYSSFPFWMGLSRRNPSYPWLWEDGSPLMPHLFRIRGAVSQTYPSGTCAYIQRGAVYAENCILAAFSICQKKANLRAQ
Kind of test: SPR Biacore T200, antibody captured by anti-mouse IgG, cynomolgus soluble LOX-1 as analyte, 1:1 model. As for the experimental part: For murine LOX-1 antibody E2E10 binding to human and cynomolgus monkey LOX-1, a Biacore T200 was primed with fresh, filtered running buffer (1×HBS-EP+(GE catalog number BR-1006-60)). A CM5 chip (GE catalog number BR-1005-30) was prepared using a mouse antibody capture kit (GE catalog number BR-1008-38) and an amine coupling kit (GE catalog number BR-1000-50). Briefly, a new chip was activated with EDC/NHS at 10 ul/min for 420 sec. Anti-mouse IgG antibody was immobilized at […] 10 mM acetate pH 5.0 at 10 ul/min for 420 sec. The chip surface was deactivated with 1M ethanolamine solution (10 ul/min for 420 sec) and then conditioned three times with 10 mM Glycine-HCl, pH 1.5 (GE catalog number BR-1003-54) at 60 ul/min for 30 sec.
For sample cycles, 1) Ms-anti-Hu LOX-1 mAb was captured on flow cell 2, 3, or 4 for a pre-determined amount of time that allowed for capture of approximately 20RUs at 10 ul/min. Flow cell 1 was used as a reference, 2) running buffer for 30s at 60 ul/min, 3) human soluble LOX-1 or cynomolgus monkey soluble LOX-1 diluted in running buffer at various concentrations (with at least two duplicate samples and multiple buffer blanks for 350 sec at 60 ul/min, with either 750 sec or 3000 sec dissociation time), 4) regeneration buffer for 60 sec at 60 ul/min, 5) running buffer for 35s at 60 ul/min, extra wash with running buffer and including a carry-over control. Data were analyzed using buffer blanks, reference blank, and a 1:1 binding model for curve fitting in order to determine association and dissociation rate constants (ka and kd) and equilibrium binding constants (KD) (see results for E2E10 in Tables 7-8).
In general terms: In SPR one partner is held on a chip, and binding of the other changes the refractive index at the surface.

B1: E2E10 (murine parental) (antibody, IgG1, V domains shown)
VH: QVQLQQSGAELVRPGASVKLSCKALGYTFTDYEMHWVKQTPVHGLEWIGAIHPGSGGAAYIQKFKGKATLTADKSSSTAHMELSSLTSEDSAVYYCTRWLPMDYWGQGTSVTVSS
VL: DIQMTQSSSYLSVSLGGRVTITCKASDHINNWLAWYQQKPGNAPRLLISGATSLETGVPSRFSGSGSGKDYTLSITGLQTEDVATYYCQQYLITPYTFGGGTKLEIK
notes: Mouse hybridoma monoclonal antibody, IgG1 with a kappa light chain; Biotinylated in the SET and neutrophil assays; also called Clone 39.1E2E10; mouse parental
As a reminder, the IC50 is the midpoint of a concentration-inhibition curve. The term EC50 denotes the concentration at which the effect is half-maximal. By koff is commonly meant the first-order rate constant of dissociation. In general, kon refers to the second-order rate constant of association. For the molecule B1, in test [1], the “Reactive oxygen species (ROS) generation in huLOX-1/HEK293 cells (IC50, nM)” value was determined as 5.7 nM. The molecule also had an IC50 in test [2] of 4 nM. In addition, the EC50 in test [3] worked out at 0.04 µg/mL. Moreover, in test [4], the Kd came to 0.015 nM, the koff stood at 2.5e-05 s⁻¹ and the kon turned out to be 1.7e+06 M⁻¹ s⁻¹.
